Non-standard residues stand in square brackets, D forms with d. No end group written: not given here. *: point of attachment. 2Nal = N[C@@H](Cc1ccc2ccccc2c1)C(=O)O; pNA = O=[N+]([O-])c1ccc(N*)cc1; NH(3-MeOPh) = COc1cccc(N*)c1; Sar = CNCC(=O)O

Sequence of human pepsin I (P0DJD7 63-388): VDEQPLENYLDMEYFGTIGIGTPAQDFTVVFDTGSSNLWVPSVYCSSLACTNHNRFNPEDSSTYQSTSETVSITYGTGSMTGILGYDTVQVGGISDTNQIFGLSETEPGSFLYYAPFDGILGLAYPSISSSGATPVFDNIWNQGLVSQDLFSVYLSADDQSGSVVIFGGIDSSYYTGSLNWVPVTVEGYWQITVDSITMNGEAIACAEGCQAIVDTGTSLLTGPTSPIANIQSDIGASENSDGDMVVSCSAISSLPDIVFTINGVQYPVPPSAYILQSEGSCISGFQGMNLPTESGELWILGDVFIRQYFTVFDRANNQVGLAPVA

The first assay concerns the target T1, human pepsin II (Homo sapiens, UniProt P20142).
T1 sequence (P20142 60-388): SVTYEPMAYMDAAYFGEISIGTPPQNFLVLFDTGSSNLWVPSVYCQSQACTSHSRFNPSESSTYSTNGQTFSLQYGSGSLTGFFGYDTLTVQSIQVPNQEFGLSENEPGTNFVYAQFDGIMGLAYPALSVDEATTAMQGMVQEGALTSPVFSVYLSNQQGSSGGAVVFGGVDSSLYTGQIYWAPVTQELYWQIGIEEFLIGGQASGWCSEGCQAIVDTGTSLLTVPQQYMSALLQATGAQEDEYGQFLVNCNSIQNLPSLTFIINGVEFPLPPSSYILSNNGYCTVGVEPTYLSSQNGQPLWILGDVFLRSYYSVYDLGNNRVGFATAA
As to the kind of experiment: Digesting of the peptide substrate by human pepsin II (assay by HPLC). The conditions noted are these: calculated from the HPLC digesting rates, pepsin II over pepsin I. The assay is classed as biochemical. As for the experimental part:
(§1) Tartaric acid buffer or glycine buffer (pH2.0) containing each peptide (0.5 mM) prepared in Examples 1 and 2(3) etc. (Examples in Table 3 described hereinafter).
(§2) An aqueous solution of human pepsin I or human pepsin II (0.01 mg/ml)
(§3) Enzyme solution I (0.1 ml) was added to Reagent (1.0 ml). After incubation of the mixture at 37° C. for 10, 30, 60 minutes, the mixture solution (0.3 ml) was collected. To the collected solution, 2N-NaOH (0.025 ml) was added to terminate the reaction. After addition of 2N-HCl (0.025 ml) to the mixture, protein was removed by the ultrafiltration. The assaying the amino acid derivatives of the formula (II-A) [drawing 19]
(§4) which was released after digesting by human pepsin in the obtained solution was carried out by HPLC using C18 column. The ratio of digesting rate of pepsin II/pepsin I was calculated according to the result from assay by HPLC. Such assay is carried out to confirm that a substrate was digested by pepsin I or pepsin II correctly and that the amino acid derivatives of the formula (II-A) were released.
In the case of “2(36): Q=Pro Asn Ser Glu; 2-Naphthyl; R4=Me; (EE)m single bond; Z=p-NA (PNSE[2Nal]A-pNA; also: TFMSA salt)”, the “ration of digesting rate (pepsin II/ pepsin I)” value (shortened to “ration of digesting rate”) was 193.5.

Take “2(39): Q=Pro Met Ser Glu; 2-Naphthyl; R4=Me; (EE)m single bond; Z=p-NA (PMSE[2Nal]A-pNA; also: TFMSA salt)”: the “ration of digesting rate” value is 201.1.

With “2(45): Q=Pro Thr Ser Glu; 2-Naphthyl; R4=Me; (EE)m single bond; Z=p-NA (PTSE[2Nal]A-pNA; also: TFMSA salt)”, the “ration of digesting rate” value is reported as 161.4.

Consider “2(51): Q=Gly Leu Ser Glu; 2-Naphthyl; R4=Me; (EE)m single bond; Z=p-NA (GLSE[2Nal]A-pNA; also: TFMSA salt)”, for which the “ration of digesting rate” value is 333.8.

For the substance “2(53): Q=Gln Leu Ser Glu; 2-Naphthyl; R4=Me; (EE)m single bond; Z=p-NA (QLSE[2Nal]A-pNA; also: TFMSA salt)”, the “ration of digesting rate” value is given as 621.0.

On to “2(54): Q=Lys Leu Ser Glu; 2-Naphthyl; R4=Me; (EE)m single bond; Z=p-NA (KLSE[2Nal]A-pNA; also: TFMSA salt)”, for which the “ration of digesting rate” value is reported as 176.7.

Regarding “2(56): Q=Ser Leu Ser Glu; 2-Naphthyl; R4=Me; (EE)m single bond; Z=p-NA (SLSE[2Nal]A-pNA; also: TFMSA salt)”, the “ration of digesting rate” value is on record as 562.6.

In the case of “2(57): Q=Thr Leu Ser Glu; 2-Naphthyl; R4=Me; (EE)m single bond; Z=p-NA (TLSE[2Nal]A-pNA; also: TFMSA salt)”, the “ration of digesting rate” value was 660.9.

Consider “2(61): Q=Ac Lys Asn Leu Ser Glu; 2-Naphthyl; R4=Me; (EE)m single bond; Z=p-NA (Ac-KNLSE[2Nal]A-pNA; also: TFMSA salt)”, for which the “ration of digesting rate” value is recorded as 219.0.

Consider “2(63): Q=Pro Asn Asn Leu Ser Glu; 2-Naphthyl; R4=Me; (EE)m single bond; Z=p-NA (PNNLSE[2Nal]A-pNA; also: TFMSA salt)”, for which the “ration of digesting rate” value is reported as 169.2.

Take “2(78): Q=Leu Ser Glu; 2-Naphthyl; R4=Me; (EE)m=Leu; Z=p-NA (LSE[2Nal]AL-pNA; also: TFMSA salt)”: the “ration of digesting rate” value is given as 20.74.

Regarding “2(80): Q=Leu Ser Glu; 2-Naphthyl; R4=Me; (EE)m=Gly; Z=p-NA (LSE[2Nal]AG-pNA; also: TFMSA salt)”, the “ration of digesting rate” value is 105.48.

As for “2(83): Q=Sar Leu Ser Glu; 2-Naphthyl; R4=Me; (EE)m=Ala; Z=m-ASD ([Sar]LSE[2Nal]AA-{NH(3-MeOPh)}; also: TFMSA salt)”, the “ration of digesting rate” value is recorded as 29.87.

The assay is the same for the next values; noted with them: peptide 0.5 mM, tartaric acid or glycine buffer pH2.0, 37° C., released amino acid derivative (II-A) by HPLC.
Regarding “2(36): Q=Pro Asn Ser Glu; 2-Naphthyl; R4=Me; (EE)m single bond; Z=p-NA (PNSE[2Nal]A-pNA; also: TFMSA salt)”, the “pepsin II digesting rate” value was 21.22 μM/min · 1 μg Enz.

Consider “2(39): Q=Pro Met Ser Glu; 2-Naphthyl; R4=Me; (EE)m single bond; Z=p-NA (PMSE[2Nal]A-pNA; also: TFMSA salt)”, for which the “pepsin II digesting rate” value was found to be 45.79 μM/min · 1 μg Enz.

In the case of “2(45): Q=Pro Thr Ser Glu; 2-Naphthyl; R4=Me; (EE)m single bond; Z=p-NA (PTSE[2Nal]A-pNA; also: TFMSA salt)”, the “pepsin II digesting rate” value was 40.55 μM/min · 1 μg Enz.

For the substance “2(51): Q=Gly Leu Ser Glu; 2-Naphthyl; R4=Me; (EE)m single bond; Z=p-NA (GLSE[2Nal]A-pNA; also: TFMSA salt)”, the “pepsin II digesting rate” value came out at 54.43 μM/min · 1 μg Enz.

“2(53): Q=Gln Leu Ser Glu; 2-Naphthyl; R4=Me; (EE)m single bond; Z=p-NA (QLSE[2Nal]A-pNA; also: TFMSA salt)”: the “pepsin II digesting rate” value was 61.96 μM/min · 1 μg Enz.

Turning to “2(54): Q=Lys Leu Ser Glu; 2-Naphthyl; R4=Me; (EE)m single bond; Z=p-NA (KLSE[2Nal]A-pNA; also: TFMSA salt)”, the “pepsin II digesting rate” value turned out to be 48.39 μM/min · 1 μg Enz.

Turning to “2(56): Q=Ser Leu Ser Glu; 2-Naphthyl; R4=Me; (EE)m single bond; Z=p-NA (SLSE[2Nal]A-pNA; also: TFMSA salt)”, the “pepsin II digesting rate” value amounted to 10.94 μM/min · 1 μg Enz.

Take “2(57): Q=Thr Leu Ser Glu; 2-Naphthyl; R4=Me; (EE)m single bond; Z=p-NA (TLSE[2Nal]A-pNA; also: TFMSA salt)”: the “pepsin II digesting rate” value was determined as 18.78 μM/min · 1 μg Enz.

“2(61): Q=Ac Lys Asn Leu Ser Glu; 2-Naphthyl; R4=Me; (EE)m single bond; Z=p-NA (Ac-KNLSE[2Nal]A-pNA; also: TFMSA salt)”: the “pepsin II digesting rate” value is 36.81 μM/min · 1 μg Enz.

In the case of “2(63): Q=Pro Asn Asn Leu Ser Glu; 2-Naphthyl; R4=Me; (EE)m single bond; Z=p-NA (PNNLSE[2Nal]A-pNA; also: TFMSA salt)”, the “pepsin II digesting rate” value was 29.84 μM/min · 1 μg Enz.

Take “2(78): Q=Leu Ser Glu; 2-Naphthyl; R4=Me; (EE)m=Leu; Z=p-NA (LSE[2Nal]AL-pNA; also: TFMSA salt)”: the “pepsin II digesting rate” value is 54.41 μM/min · 1 μg Enz.

Turning to “2(80): Q=Leu Ser Glu; 2-Naphthyl; R4=Me; (EE)m=Gly; Z=p-NA (LSE[2Nal]AG-pNA; also: TFMSA salt)”, the “pepsin II digesting rate” value was found to be 15.77 μM/min · 1 μg Enz.

For the substance “2(83): Q=Sar Leu Ser Glu; 2-Naphthyl; R4=Me; (EE)m=Ala; Z=m-ASD ([Sar]LSE[2Nal]AA-{NH(3-MeOPh)}; also: TFMSA salt)”, the “pepsin II digesting rate” value is given as 70.66 μM/min · 1 μg Enz.

A further assay addresses human pepsin I (Homo sapiens, UniProt P0DJD7). As to the kind of experiment: Digesting of the peptide substrate by human pepsin I (assay by HPLC). The assay is classed as biochemical. As to conditions: peptide 0.5 mM, tartaric acid or glycine buffer pH2.0, 37° C., released amino acid derivative (II-A) by HPLC. As for the experimental part:
as §1, §2, §3, §4
“2(36): Q=Pro Asn Ser Glu; 2-Naphthyl; R4=Me; (EE)m single bond; Z=p-NA (PNSE[2Nal]A-pNA; also: TFMSA salt)”: the “pepsin I digesting rate” value is given as 0.1096 μM/min · 1 μg Enz.

Consider “2(39): Q=Pro Met Ser Glu; 2-Naphthyl; R4=Me; (EE)m single bond; Z=p-NA (PMSE[2Nal]A-pNA; also: TFMSA salt)”, for which the “pepsin I digesting rate” value is 0.2277 μM/min · 1 μg Enz.

As to “2(45): Q=Pro Thr Ser Glu; 2-Naphthyl; R4=Me; (EE)m single bond; Z=p-NA (PTSE[2Nal]A-pNA; also: TFMSA salt)”, the “pepsin I digesting rate” value worked out at 0.2512 μM/min · 1 μg Enz.

Take “2(51): Q=Gly Leu Ser Glu; 2-Naphthyl; R4=Me; (EE)m single bond; Z=p-NA (GLSE[2Nal]A-pNA; also: TFMSA salt)”: the “pepsin I digesting rate” value worked out at 0.1631 μM/min · 1 μg Enz.

Consider “2(53): Q=Gln Leu Ser Glu; 2-Naphthyl; R4=Me; (EE)m single bond; Z=p-NA (QLSE[2Nal]A-pNA; also: TFMSA salt)”, for which the “pepsin I digesting rate” value is reported as 0.0998 μM/min · 1 μg Enz.

With “2(54): Q=Lys Leu Ser Glu; 2-Naphthyl; R4=Me; (EE)m single bond; Z=p-NA (KLSE[2Nal]A-pNA; also: TFMSA salt)”, the “pepsin I digesting rate” value came out at 0.2739 μM/min · 1 μg Enz.

As to “2(56): Q=Ser Leu Ser Glu; 2-Naphthyl; R4=Me; (EE)m single bond; Z=p-NA (SLSE[2Nal]A-pNA; also: TFMSA salt)”, the “pepsin I digesting rate” value came out at 0.0194 μM/min · 1 μg Enz.

For the substance “2(57): Q=Thr Leu Ser Glu; 2-Naphthyl; R4=Me; (EE)m single bond; Z=p-NA (TLSE[2Nal]A-pNA; also: TFMSA salt)”, the “pepsin I digesting rate” value turned out to be 0.0284 μM/min · 1 μg Enz.

For “2(61): Q=Ac Lys Asn Leu Ser Glu; 2-Naphthyl; R4=Me; (EE)m single bond; Z=p-NA (Ac-KNLSE[2Nal]A-pNA; also: TFMSA salt)”, the “pepsin I digesting rate” value was 0.1681 μM/min · 1 μg Enz.

In the case of “2(63): Q=Pro Asn Asn Leu Ser Glu; 2-Naphthyl; R4=Me; (EE)m single bond; Z=p-NA (PNNLSE[2Nal]A-pNA; also: TFMSA salt)”, the “pepsin I digesting rate” value is recorded as 0.1763 μM/min · 1 μg Enz.

Consider “2(78): Q=Leu Ser Glu; 2-Naphthyl; R4=Me; (EE)m=Leu; Z=p-NA (LSE[2Nal]AL-pNA; also: TFMSA salt)”, for which the “pepsin I digesting rate” value is on record as 2.6240 μM/min · 1 μg Enz.

Take “2(80): Q=Leu Ser Glu; 2-Naphthyl; R4=Me; (EE)m=Gly; Z=p-NA (LSE[2Nal]AG-pNA; also: TFMSA salt)”: the “pepsin I digesting rate” value was found to be 0.1500 μM/min · 1 μg Enz.

For the substance “2(83): Q=Sar Leu Ser Glu; 2-Naphthyl; R4=Me; (EE)m=Ala; Z=m-ASD ([Sar]LSE[2Nal]AA-{NH(3-MeOPh)}; also: TFMSA salt)”, the “pepsin I digesting rate” value is recorded as 2.3660 μM/min · 1 μg Enz.

Values taken from patent US6441131B1, “Peptides, method for assaying human pepsinogen II or human pepsin II, and assaying kit” (Ono Pharmaceutical Co., Ltd., priority 1997, dated 2002).
